The source of these data is patent publication US20250109203A1.

Experiment [1] addresses human γδ TCR (Vγ9Vδ2) on human Vδ2+ γδ T cells (human) (UniProt A0JD36). In words: flow cytometry, monomeric VHH-hIgG1 Fc fusion on expanded human Vδ2+ γδ T cells, anti-human Fc A647, MFI.
The target is the same in experiment [2]. Nature of the experiment: flow cytometry on expanded human Vδ2+ γδ T cells, nonlinear fit; from data in FIG. 6J. (In general: In flow cytometry, cells or beads pass a laser one at a time.)
The target is the same in experiment [3]. Nature of the experiment: flow cytometry on expanded human Vδ2+ γδ T cells, nonlinear fit; from data in FIG. 6K.
The target is the same in experiment [4]. In words: flow cytometry, monomeric VHH-hIgG1 Fc fusion on expanded human Vδ2+ γδ T cells, anti-human Fc A647, MFI. The source holds these as a separate data set.
The target is the same in experiment [5]. Nature of the experiment: flow cytometry on expanded human Vδ2+ γδ T cells, nonlinear fit.
For experiment [6] the target is unchanged. In words: flow cytometry on zoledronate-expanded human γδ T cells gated Vδ2+, anti-VHH Alexa647, MdFI.
For experiment [7], the target named is cynomolgus monkey γδ TCR on cynomolgus Vγ9+ γδ T cells (cynomolgus monkey). In words: flow cytometry on expanded cynomolgus γδ T cells gated Vγ9+, anti-human Fcγ A647, MdFI.

B1: hu1D7v158 VHH-hIgG1 Fc-NNT (monomeric) (VHH)
VHH: EVQLLESGGGEVQPGGSLRLSCVASRGKISQYRMGWYRQAPGKQRELVAHISNTGDAAEYVAPVKGRFTISRDNAKNALYLQMNSLRAEDTAVYKCNTVEDILAWGQGTLVTVEP
The term EC50 (read off the curve) denotes the concentration at which the effect is half-maximal. As a reminder, the Kd is the concentration at which binding is half-saturated. For the molecule B1, the EC50 (read off the curve) is 6 nM in experiment [1] and 3 nM in experiment [4]. Also, the Kd in experiment [2] worked out at 6.54 nM; in experiment [3] it was 2.96 nM.

B2: hu1D7v158-6 VHH-hIgG1 Fc-NNT (monomeric) (VHH)
VHH: EVQLLESGGGEVQPGGSLRLSCVASRGKISQYRMGWYRQAPGKQRELVAHISNTGDAAEYVASVKGRFTISRDNAKNALYLQMNSLRAEDTAVYKCNTVEDILAWGQGTLVTVEP
In experiment [5], B2 had a Kd of 2.82 nM.

B3: hu1D7v158-3 VHH-hIgG1 Fc-NNT (monomeric) (VHH)
VHH: EVQLLESGGGEVQPGGSLRLSCVASRGKISQYRMGWYRQAPGKQRELVAAISNTGDAAEYVAPVKGRFTISRDNAKNALYLQMNSLRAEDTAVYKCNTVEDILAWGQGTLVTVEP
In turn, B3 showed a Kd in experiment [5] of 28 nM.

B4: hu1D7v158-2 VHH-hIgG1 Fc-NNT (monomeric) (VHH)
VHH: EVQLLESGGGEVQPGGSLRLSCVASRGKISQYRMGWYRQAPGKQRELVSHISNTGDAAEYVAPVKGRFTISRDNAKNALYLQMNSLRAEDTAVYKCNTVEDILAWGQGTLVTVEP
For B4, in experiment [5], the Kd is 3.28 nM.

B5: hu1D7v158-9 VHH-hIgG1 Fc-NNT (monomeric) (VHH)
VHH: EVQLLESGGGEVQPGGSLRLSCVASRGKISQYRMGWYRQAPGKEREFVAHISNTGDAAEYVAPVKGRFTISRDNAKNALYLQMNSLRAEDTAVYKCNTVEDILAWGQGTLVTVEP
B5 had a Kd in experiment [5] of 20 nM.

B6: hu1D7v158-1 VHH-hIgG1 Fc-NNT (monomeric) (VHH)
VHH: EVQLLESGGGEVQPGGSLRLSCVASRGKISQYRMGWVRQAPGKQRELVAHISNTGDAAEYVAPVKGRFTISRDNAKNALYLQMNSLRAEDTAVYKCNTVEDILAWGQGTLVTVEP
Consider B6, for which the Kd in experiment [5] was found to be 205 nM.

B7: hu1D7v158-8 VHH-hIgG1 Fc-NNT (monomeric) (VHH)
VHH: EVQLLESGGGEVQPGGSLRLSCVASRGKISQYRMGWYRQAPGKQRELVAHISNTGDAAEYAESVKGRFTISRDNAKNALYLQMNSLRAEDTAVYKCNTVEDILAWGQGTLVTVEP
B7 returned a Kd in experiment [5] of 2.93 nM.

B8: hu1D7v86 VHH-hIgG1 Fc-NNT (monomeric) (VHH)
VHH: EVQLLESGGGEVQPGGSLRLSCVASRGKISQYRMGWYRQAPGKERELVAHISNTGDAAEYVGGVKDRFTISRDSTKNALYLQMSSLRAEDTAVYKCNSVEDILAWGQGTLVTVRP
B8 had an EC50 (read off the curve) in experiment [1] of 60 nM. In experiment [5], the Kd was 126 nM.

B9: hu1D7v158-5 VHH-hIgG1 Fc-NNT (monomeric) (VHH)
VHH: EVQLLESGGGEVQPGGSLRLSCVASRGKISQYRMGWYRQAPGKQRELVAHISNTGDAAEYVEPVKGRFTISRDNAKNALYLQMNSLRAEDTAVYKCNTVEDILAWGQGTLVTVEP
Consider B9, for which the Kd in experiment [5] was 2.82 nM.

B10: hu1D7v99 VHH-hIgG1 Fc-NNT (monomeric) (VHH)
VHH: EVQLLESGGGEVQPGGSLRLSCVASRGKISQYRMGWYRQAPGKERELVAHISNTGDAAEYVSSVKDRFTISRDSTKNALYLQMSSLRAEDTAVYKCNSVEDILAWGQGTLVTVRP
The molecule B10 had an EC50 (read off the curve) in experiment [1] of 60 nM. Further, the Kd in experiment [5] was found to be 116 nM.

B11: hu1D7v85 VHH-hIgG1 Fc-NNT (monomeric) (VHH)
VHH: EVQLLESGGGEVQPGGSLRLSCVASRGKISQYRMGWYRQAPGKERELVAHISNTGDAAEYVSGVKDRFTISRDSTKNALYLQMSSLRAEDTAVYKCNSVEDILAWGQGTLVTVRP
For B11, the EC50 (read off the curve) in experiment [1] stood at 70 nM. This molecule displayed a Kd in experiment [5] of 168 nM.

B12: hu1D7v158-10 VHH-hIgG1 Fc-NNT (monomeric) (VHH)
VHH: EVQLLESGGGEVQPGGSLRLSCVASRGKISQYRMGWYRQAPGKQRELVAHISNTGDAAEYVAPVKGRFTISRDNAKNALYLQMNSLRAEDTAVYYCNTVEDILAWGQGTLVTVEP
Turning to B12, the Kd in experiment [5] was determined as 4.97 nM.

B13: hu1D7v158-7 VHH-hIgG1 Fc-NNT (monomeric) (VHH)
VHH: EVQLLESGGGEVQPGGSLRLSCVASRGKISQYRMGWYRQAPGKQRELVAHISNTGDAAEYVAPVKGRFTISRDNAKNTLYLQMNSLRAEDTAVYKCNTVEDILAWGQGTLVTVEP
In turn, B13 yielded a Kd in experiment [5] of 3.47 nM.

B14: hu1D7v158-4 VHH-hIgG1 Fc-NNT (monomeric) (VHH)
VHH: EVQLLESGGGEVQPGGSLRLSCVASRGKISQYRMGWYRQAPGKQRELVAHISNTGDAAEYAAPVKGRFTISRDNAKNALYLQMNSLRAEDTAVYKCNTVEDILAWGQGTLVTVEP
As for B14, in experiment [5], the Kd came to 3.13 nM.

B15: 1D7v158×HSA×IL-2_X (h1D7v158 VHH - anti-HSA VHH - IL-2_X) (protein, part only; not given: anti-albumin VHH and linkers, part only)
chain, part: EVQLLESGGGEVQPGGSLRLSCVASRGKISQYRMGWYRQAPGKQRELVAHISNTGDAAEYVAPVKGRFTISRDNAKNALYLQMNSLRAEDTAVYKCNTVEDILAWGQGTLVTVEPAPASSSTKKTQLQLEALLLDLQMILNGINNYKNPKLTRMLTFKFYMPKKATELKHLQCLERELKRLEEVLNLAQSKNFHLRPRYLISNINVIVLELKGSETTFMCEYADETATIVEFLNRWITFSQSIISTLT
As to B15, the EC50 (read off the curve) in experiment [6] came to 4 nM.

B16: bivalent 1D7 VHH-human IgG1 Fc xELL fusion (VHH)
VHH: QVQLVQSGGGLVQPGGSLRLSCVASRGKISQYRMGWYRQAPGKQRELVAHISNTGDAAEYVDSVKGRFTISRDSTKNAVYLQMNSLKPEDTAVYKCNSVEDILAWGQGTQVTVKP
B16 yielded an EC50 (read off the curve) in experiment [7] of 0.3 nM.

B17: 1D7×HSA×IL-2_X (anti-γδTCR-1D7 VHH - anti-HSA VHH - IL-2_X) (protein, part only; not given: anti-albumin VHH and linkers, part only)
chain, part: QVQLVQSGGGLVQPGGSLRLSCVASRGKISQYRMGWYRQAPGKQRELVAHISNTGDAAEYVDSVKGRFTISRDSTKNAVYLQMNSLKPEDTAVYKCNSVEDILAWGQGTQVTVKPAPASSSTKKTQLQLEALLLDLQMILNGINNYKNPKLTRMLTFKFYMPKKATELKHLQCLERELKRLEEVLNLAQSKNFHLRPRYLISNINVIVLELKGSETTFMCEYADETATIVEFLNRWITFSQSIISTLT
Turning to B17, in experiment [6], the EC50 (read off the curve) amounted to 5 nM.

B18: hu1D7v3 VHH-hIgG1 Fc-NNT (monomeric) (VHH)
VHH: EVQLLESGGGEVQPGGSLRLSCVASGGKISQYRMGWYRQAPGKGLEWVAHISNTGDAAEYVDSVKGRFTISRDSTKNAVYLQMSSLRAEDTAVYKCNSVEDILAWGQGTLVTVKP
In turn, B18 yielded an EC50 (read off the curve) in experiment [1] of 20 nM. The molecule further had a Kd in experiment [5] of 51.1 nM.

B19: hu1D7v5 VHH-hIgG1 Fc-NNT (monomeric) (VHH)
VHH: EVQLLESGGGEVQPGGSLRLSCVASRGTISQYRMGWYRQAPGKGLEWVAHISNTGDAAEYVDSVKGRFTISRDSTKNAVYLQMSSLRAEDTAVYKCNSVEDILAWGQGTLVTVKP
In experiment [1], B19 displayed an EC50 (read off the curve) of 30 nM. Moreover, in experiment [5], the dissociation constant (Kd) was 108 nM.

B20: hu1D7v10 VHH-hIgG1 Fc-NNT (monomeric) (VHH)
VHH: EVQLLESGGGEVQPGGSLRLSCVASRGKISQYRMGWYRQAPGKGLEWVSHISNTGDAAEYVDSVKGRFTISRDSTKNAVYLQMSSLRAEDTAVYKCNSVEDILAWGQGTLVTVKP
Turning to B20, the Kd in experiment [5] is 60.9 nM.
